Experimental data from US20090214574A1.

B1: CD30×CD16^LS21 TandAb/(G2S)3 (bispecific antibody, part only; not given: anti-CD30 VH and VL, His tag, not shown: small tags and cut ends)
chain, part: EEVQLVQSGAEVKKPGESLKVSCKASGYTFTSYYMHWVRQAPGQGLEWMGIINPSGGSTSYAQKFQGRVTMTRDTSTSTVYMELSSLRSEDTAVYYCARGSAYYYDFADYWGQGTLVTVSSGGSGGSGGSGGSGGSGGSGGSGGSGGSQPVLTQPSSVSVAPGQTATISCGGHNIGSKNVHWYQQRPGQSPVLVIYQDNKRPSGIPERFSGSNSGNTATLTISGTQAMDEADYYCQVWDNYSVLFGGGTKLTVL
B2: affinity matured anti-CD16A scFv 4-LS21 (scFv)
scFv: EVQLVQSGAEVKKPGESLKVSCKASGYTFTSYYMHWVRQAPGQGLEWMGIINPSGGSTSYAQKFQGRVTMTRDTSTSTVYMELSSLRSEDTAVYYCARGSAYYYDFADYWGQGTLVTVSSGSASAPTLKLEEGEFSEARVQPVLTQPSSVSVAPGQTATISCGGHNIGSKNVHWYQQRPGQSPVLVIYQDNKRPSGIPERFSGSNSGNTATLTISGTQAMDEADYYCQVWDNYSVLFGGGTKLTVLGQPKAAPSVTLFPPSAAAGSEQKLISEEDLNSHHHHHH

How the values were obtained:
[1] = target: human CD16A-Fc^48R/158F fusion protein (human) (UniProt P08637); test: affinity measurement, method not named for the TandAb
[2] = target: human CD16A-Fc^48R/158V fusion protein (human) (UniProt P08637); test: as above
[3] = target: human CD16A-Fc^48R/158F fusion protein (human) (UniProt P08637); test: surface plasmon resonance
[4] = target: human CD16A-Fc^48R/158F fusion protein (human) (UniProt P08637); test: SPR, BIAcore 2000, antigen immobilized
[5] = target: human CD16A-Fc^48R/158F fusion protein (human) (UniProt P08637); test: SPR, BIAcore 2000, antigen immobilized, koff/kon

human CD16A-Fc^48R/158F fusion protein (human), sequence (P08637 17-208): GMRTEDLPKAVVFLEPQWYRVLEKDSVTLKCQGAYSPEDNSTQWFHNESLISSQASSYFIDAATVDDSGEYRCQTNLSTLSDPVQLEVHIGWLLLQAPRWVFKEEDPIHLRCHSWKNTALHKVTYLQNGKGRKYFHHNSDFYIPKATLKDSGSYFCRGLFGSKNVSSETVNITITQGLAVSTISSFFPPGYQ
human CD16A-Fc^48R/158V fusion protein (human), sequence (P08637 17-208 L66R/F176V limits assumed): as the sequence (P08637 17-208) above, with L50R, F160V counted along it

Row | fold improvement in affinity over the 4-LS21 scFv [1] | fold improvement in affinity over the 4-LS21 scFv [2] | Kd [3] | koff [4] | kon [4] | Kd [5] | Binder
1 | > 10 fold | > 10 fold | – | – | – | – | B1
2 | – | – | 50 nM | 0.00323 s⁻¹ | 71300 M⁻¹ s⁻¹ | 45.3 nM | B2
